Consider 3 molecules from patent US20210102195A1 (TWIST BIOSCIENCE, published 2021).

Assay [1] addresses T1, CRTH2R (UniProt Q9Y5Y4 1-395, limits assumed).
T1 sequence (looked up): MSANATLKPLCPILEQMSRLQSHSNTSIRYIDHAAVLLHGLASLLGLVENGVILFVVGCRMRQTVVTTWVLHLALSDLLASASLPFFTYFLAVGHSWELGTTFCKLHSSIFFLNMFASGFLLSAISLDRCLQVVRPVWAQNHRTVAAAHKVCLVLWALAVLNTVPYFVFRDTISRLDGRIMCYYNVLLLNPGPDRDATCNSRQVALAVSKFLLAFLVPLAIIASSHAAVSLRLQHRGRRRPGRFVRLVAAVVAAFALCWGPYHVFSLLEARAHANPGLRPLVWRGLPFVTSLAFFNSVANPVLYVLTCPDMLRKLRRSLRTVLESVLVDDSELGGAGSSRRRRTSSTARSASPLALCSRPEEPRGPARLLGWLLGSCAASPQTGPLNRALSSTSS
The assay can be described thus: cell-based or functional assay.

The target of assay [2] is T1, CRTH2R. The assay can be described thus: flow cytometry (MFI), CHO CRTH2R-positive cells against parental CHO cells; same panel as in FIG. 15C; grey = CRTH2R cells, black = parental cells (no legend on the panel). As for the experimental part:
(§1) Cell binding of anti-CRTH2R antibodies was determined by testing on CHO CRTH2R-positive cells (GFP+) and parental CHO cells (GFP−), comparing parental negative and target positive cells to rule out false-positives. Antibodies as listed in Table 14A were titrated starting at 100 nM (15 ug/mL) with 3-fold titrations, for a total of 8 points. Two antibodies (gPCR-51 and gPCR-52) were used as a positive control.

The target of assay [3] is T1, CRTH2R. The assay is described as follows: flow cytometry (MFI), CHO CRTH2R-positive cells against parental CHO cells, 3-fold titration from 100 nM; grey = CRTH2R cells, black = parental cells (no legend on the panel). The protocol:
as §1
On the technique in general: Flow cytometry measures light scatter and fluorescence of single cells or particles in a stream.

The target in a further assay is T2, human CD3 epsilon (human, UniProt P07766 23-126, limits assumed).
T2 construct: also called hCD3; hCD3 epsilon
T2 sequence (P07766 23-126 limits assumed): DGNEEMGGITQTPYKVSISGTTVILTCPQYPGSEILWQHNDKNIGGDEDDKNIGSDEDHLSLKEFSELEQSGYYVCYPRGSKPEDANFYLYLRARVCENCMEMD
The assay can be described thus: affinity of IgG; method not stated; human CD3 epsilon.

The target of assay [4] is T1, CRTH2R. The assay is described as follows: flow cytometry (MFI), CHO CRTH2R-positive cells against parental CHO cells; same panel as in FIG. 15E; grey = CRTH2R cells, black = parental cells (no legend on the panel). As for the experimental part:
as §1

B1: CRTH2-32 (antibody, V domains shown)
VH: QVQLVESGGGVVQPGRSLRLSCAASGFTFSKHGMHWVRQAPGKGLEWVAFISYEGSEKYYADSVKGRFTISRDNSKNTLYLQMNSLRAEDTAVYYCARDMYYDFHYSTVGATYYYYLGSETEVVPADDAFDIWGQGTLVTVSS
VL: QSALTQPASVSGSPGQSITISCTGTSSGVGGYDYVSWYQQHPGKAPKLMIYDDNNRPSGVSNRFSGSKSGNTASLTISGLQAEDEADYYCSSYTGSSTLYVFGGGTKLTVL
notes: CRTH2R IgG
By EC50 is commonly meant the concentration at which the effect is half-maximal. Consider B1, for which the “IC50 fold difference of the PGD2 dose response (cAMP) with 100 nM IgG” value in the assay with CRTH2R [1] was > 2 fold. Further, the EC50 with CRTH2R [2] and with CRTH2R [3] was 12.4 nM in each case.

B2: CD3-56-05 (antibody, V domains shown)
VH: EVQLLESGGGLVQPGGSLRLSCAASGFTFSSYAMNWVRQAPGKGLEWVSAVSGSGGRTYYADSVKGRFTISRDNSKNTLYLQMNSLRAEDTAVYYCARERATTLDYWGQGTLVTVSS
VL: DIQMTQSPSSLSASVGDRVTITCRASQTIYSHLNWYQQKPGKAPKLLIYVASRLQSGVPSRFSGSGSGTDFTLTISSLQPEDFATYYCQQSFSTSWTFGGGTKVEIK
notes: IgG; also called CD3-56-5
For orientation: Kd means the equilibrium constant for the complex coming apart. A higher Kd goes with lower affinity. In the assay with human CD3 epsilon, B2 gave a Kd of 67 nM.

B3: CRTH2-50 (antibody, V domains shown)
VH: QVQLVQSGAEVKKPGSSVKVSCKASGGTFSSYALSWVRKAPGQGLEWMGGTIPIFGTVNYAQKFQGRVTITADESTSTAYMELSSLRSEDTAVYYCARANQHFTRVIGQPSPAVPSRGYIYHGYHYYGMDVWGQGTLVTVSS
VL: QSALTQPASVSGSPGQSITISCTGTSSDIGGYNFVSWYQQHPGKAPKLMIYDVSNRPQGVSNRFSGSKSGNTASLTISGLQAEDEADYYCSSYTSSNTYVVFGGGTKLTVL
notes: CRTH2R IgG
Consider B3, for which the “IC50 fold difference of the PGD2 dose response (cAMP) with 100 nM IgG” value in the assay with CRTH2R [1] was > 2 fold. Moreover, the 50% effective concentration (EC50) with CRTH2R [4] and with CRTH2R [3] was 19.6 nM throughout.
